These results are taken from publication PMC7253601, “Rules of Expansion: an Updated Consensus Operator Site for the CopR-CopY Family of Bacterial Copper Exporter System Repressors” (mSphere, 2019).

A word on the Kd: it is the constant that tells how readily two partners part at equilibrium. What is called stoichiometry N is the number of molecules, sites or subunits per partner or assembly.

A value given as a limit tells only on which side of the number the result lay.

Data set [1] has as its target CopY (S. pneumoniae) (Streptococcus pneumoniae (TIGR4?)) (UniProt A0ACD7PQP7). In words: BLI. Conditions: BLI: 50 mM Tris pH 7.4, 150 mM NaCl, 4% glycerol, 1 mM TCEP, 0.1% BSA, 26 C; EMSA: Tris-borate without EDTA, 4 C, 5% PAGE.
Data set [2] has as its target Streptococcus pneumoniae CopY (S. pneumoniae). In words: SEC; Superdex 200; 20 mM Tris (pH 8), 200 mM NaCl, 1 mM TCEP; elution volume compared to an SEC standard (Bio-Rad); on ice or at 4°C. Background: Size exclusion chromatography separates by hydrodynamic size, large species first.
Data set [3] addresses T1, CopY (S. pneumoniae) (Streptococcus pneumoniae, UniProt A0ACD7PQP7 1-131). Briefly: BLI; 3 uM CopY; BLI: 50 mM Tris pH 7.4, 150 mM NaCl, 4% glycerol, 1 mM TCEP, 0.1% BSA, 26 C; EMSA: Tris-borate without EDTA, 4 C, 5% PAGE. Conditions: protein: recombinant; tags: N-terminal 6xHis removed by TEV (pMCSG7; also tested uncleaved); chain copies: 2; label: 5' biotin on forward strand; blunt. A general note: In BLI a coated tip is dipped into the sample, and binding shifts an interference pattern.

Data set [4] has as its target T1, CopY (S. pneumoniae). Briefly: BLI; BLI: 50 mM Tris pH 7.4, 150 mM NaCl, 4% glycerol, 1 mM TCEP, 0.1% BSA, 26 C; EMSA: Tris-borate without EDTA, 4 C, 5% PAGE. Particulars: protein: recombinant; tags: N-terminal 6xHis removed by TEV (pMCSG7; also tested uncleaved); chain copies: 2; label: 5' biotin on forward strand; blunt.
Data set [5] concerns the molecule itself. Briefly: SEC; Superdex 200; 20 mM Tris (pH 8), 200 mM NaCl, 1 mM TCEP; elution volume compared to an SEC standard (Bio-Rad); on ice or at 4°C.

Molecule 19 bp T to C (operator position 3) had a Kd in data set [1] of 40.4 nM.
Take “Streptococcus pneumoniae CopY (natural protein)”: the stoichiometry N in data set [2] stood at 2.
In data set [1], E. hirae proximal operator gave a Kd of 164 nM.
Same read-out and setting: the value for full palindrome (A13C) was 39.6 nM.
On the same count and under the same terms, then 19 bp (19 of 21 repeat bases), with 37.1 nM; and 14 bases (14 of 21 repeat bases), with over 3000 nM; and “16 bp (16 of 21 repeat bases kept: ATTGACAAATGTAGAT)”, with 360 nM.

B1: SP_0090 2 (dsDNA)
DNA 1: GAGTATACTAATAATGTAATCGTTATC
DNA 2: GATAACGATTACATTATTAGTATACTC
Take B1: the binding result in data set [3] is given as “no binding”.

B2: SP_0090 1 (dsDNA)
DNA 1: TGATTTAGGACATTTGTTTGATAGTGG
DNA 2: CCACTATCAAACAAATGTCCTAAATCA
Turning to B2, the binding result in data set [3] is reported as “no binding”.

B3: SP_0530 (dsDNA)
DNA 1: ATTTGAGGAACAAATGTACGTTTATAA
DNA 2: TTATAAACGTACATTTGTTCCTCAAAT
For B3, the binding result in data set [3] was “no binding”.

B4: SP_1433 (dsDNA)
DNA 1: GTAATTATAACAGATGTATAATAGAAA
DNA 2: TTTCTATTATACATCTGTTATAATTAC
On to B4, for which the binding result in data set [3] is reported as “no binding”.

B5: wild type two-operator DNA (BLI) (dsDNA)
DNA 1: TAATTGACAAATGTAGATTTTAAGAGTATACTGATGAGTGTAATTGACAAATGTAGATTTT
DNA 2: AAAATCTACATTTGTCAATTACACTCATCAGTATACTCTTAAAATCTACATTTGTCAATTA
On to B5, for which the Kd in data set [4] is 28.1 ± 0.2 nM.

B6: Streptococcus thermophilus CopY (natural protein, S. thermophilus, UniProt Q5M352 1-143, looked up)
chain: MLAISSAEWEVMRVLWAKGQATSSEIIEILAKKLDWSASTVKTLIGRLADKGYLTSQRQGRGFIYQASLGEDEAIFQALEAVFDKICLTKHSDLLGQLIAKTPMTQADVDKLQALLLAKVPVDQVVCDCVPGQCACGHHMEVN
notes: CopY (CopR-CopY family cop operon repressor), Streptococcus thermophilus; cloned from genomic DNA; also called S. thermophilus cop operon repressor; CopR-CopY; source: recombinant (pMCSG7 vector), purified (IMAC, TEV cleavage, subtractive IMAC, SEC); not shown: His6, N-terminal, cleaved
Consider B6, for which the “stoichiometry N” value in data set [5] stood at 2.

B7: SP_1863 (dsDNA)
DNA 1: ATGAATAAAACAATTGTAACACTCATC
DNA 2: GATGAGTGTTACAATTGTTTTATTCAT
For B7, the binding result in data set [3] is listed as “no binding”.

B8: SP_0045 (dsDNA)
DNA 1: GGTGAACTAACAGATGTTTACGAAATT
DNA 2: AATTTCGTAAACATCTGTTAGTTCACC
Take B8: in data set [3], the binding result is reported as “no binding”.

B9: Enterococcus hirae CopY E86D (natural protein)
chain: MEEKRVLIKISDSEWEVMRVIWTLGQANAQQITQILADSMDWKVATVKTLLGRLVKKEALWTEQEGKKFIYHPAVSEMENVRSATDNLFSHICAKRVGATIADLVEEATLTQEDIQQIMKQLNKKEPVETIECNCIPGQCECKKQ
notes: CopY, cop operon repressor, Enterococcus hirae; cloned from genomic DNA; the methods call the gene copR; The wild type was cut by TEV inside the protein and was used uncleaved; also called E. hirae cop repressor; cleaved E86D protein; source: recombinant (pMCSG7 vector), purified (IMAC, TEV cleavage, subtractive IMAC, SEC); not shown: His6, N-terminal, cleaved
In the case of B9, the “stoichiometry N” value in data set [5] turned out to be 2.

B10: SP_2073 (dsDNA)
DNA 1: AAGGCGGAAACATGTGTCAATGACTTG
DNA 2: CAAGTCATTGACACATGTTTCCGCCTT
Regarding B10, the binding result in data set [3] is “no binding”.
